The values below come from the supplement of paper PMC12764529.

Data set [1] can be described thus: folding stability dG unfold from trypsin proteolysis; higher = more stable. The method, then: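 Folding stability of de novo designed mini-proteins (<80 aa, no Cys; designed by TrROS, TrMRF, ProteinMPNN and the joint model) was measured by cDNA display proteolysis with trypsin and chymotrypsin. Each protease was used at 11 concentrations in a threefold dilution series plus a no-protease condition. K50 was inferred by Bayesian fitting of sequencing counts, and dG unfold was derived against a sequence-predicted unfolded-state K50 (Tsuboyama et al. method). Sequences shown include variable-length N-terminal GS-type padding (SAGGSAGG...) inside a display construct carrying a PA tag. Rows were kept only if the AF2 dimer inter-PAE was >15, to exclude likely homo-oligomers.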

Data set [2] in a line: folding stability dG unfold (combined trypsin and chymotrypsin); higher = more stable. A digest of the protocol: (§1)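 Mini-proteins designed to be under 80 residues and free of cysteine were carried in a PA-tagged cDNA display construct and digested with trypsin and with chymotrypsin. Each protease was applied at 11 threefold-diluted concentrations, alongside a no-protease condition, before sequencing. K50 came from Bayesian fitting of the sequencing counts, and unfolding free energy was obtained by comparing it with a sequence-predicted unfolded-state K50 and a shared folded-state K50, for each protease separately or for both together. Designs were retained only if their AlphaFold2 dimer inter-PAE exceeded 15.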

A short description of data set [3]: folding stability dG unfold from chymotrypsin proteolysis; higher = more stable. A digest of the protocol:
as §1

± gives the half width of the 95% confidence interval.

Consider “KTIEIMIPMEQMRNNKPIPADQFLKELAQEFGGPNVKPKVEPMPDNMMKATITLPNGRKIEITDPGAIKIKS [r1_168_TrROS]”, for which the “folding stability dG unfold” value in data set [1] is -0.43 ± 0.57 kcal/mol; in data set [2], less than -1 kcal/mol. With “MEEVTIEIEVKGLSEEEIKELAEKLAEELREAGYEVEITKVEVLPDGSVKVTIKVRKGMSEEELKKLLEKLS [r1_485_TrROS_Hall]”, the “folding stability dG unfold” value in data set [1] stood at 3.65 ± 0.36 kcal/mol.

With “SADFKPEGPSNNALVWKNPNSGKMFMIYPSDDNIEVQEIEYDPGNNKPEPETERVPLPEDDRDDLKDLLSAG [r14_245_TrROS]”, the “folding stability dG unfold” value in data set [1] is -0.663 ± 0.14 kcal/mol; in data set [2], less than -1 kcal/mol. For the sequence “SAGAGTVASPEEAEELVEELRAALPPEATITRDPTPEGGVRFTVRLPGEGRVLEMEFDPARDTTARRPESAG [r5_358_JUSTAS]”, the “folding stability dG unfold” value was -0.391 ± 0.083 kcal/mol in data set [1] and less than -1 kcal/mol in data set [2]. On the same counts, the results for “SAGGEPIKIKIDSVQEQPNPDGGPYLYVKITYPDGGRQTGMFDSPEDFKSQLEGEPGFKKIEIEPIRSAGGS [r16_757_TrROS]” are -0.839 ± 0.52 kcal/mol and less than -1 kcal/mol. “SAGGGAEEEAKKIAEELEKIGGVKKVEVEVKPKPDDSVEVKVKVEFEPPKPPKPPVVELPENGELVFKSAGG [r13_957_TrMRF]”: the “folding stability dG unfold” value in data set [1] was -0.0749 ± 0.21 kcal/mol; in data set [2], less than -1 kcal/mol.

Consider “SAGGGKIVFTEGYLLAEFPPTDLRVARPIPPDRPELALEEVADAFIAEMEAEFGFPPPEDVRVEVLASAGGS [r8_402_TrMRF]”, for which the “folding stability dG unfold” value in data set [1] is 0.28 ± 0.058 kcal/mol; in data set [2], -0.0645 ± 0.2 kcal/mol.

In the case of “SAGGGMVERTETVTVPLSDVLAGRPPTPEAIAAARFPDTAEVTLETTEVPEDDTVTVTLTVRVPPELLSAGG [r13_862_JUSTAS]”, the “folding stability dG unfold” value in data set [1] is 0.472 ± 0.069 kcal/mol; in data set [2], -0.0656 ± 0.21 kcal/mol. On the same counts, the results for “SAGGKVEIYNPNGQWKEITPEDLEGLKPGTIWQMPNGPVMIEIPGNDETIPIPMDSPNDIKDAIKDALSAGG [r13_962_TrROS]” are 0.246 ± 0.066 kcal/mol and -0.183 ± 0.18 kcal/mol.

For “SAGGMTIVKPSDGTPQFIEDEEAEKLVKELEEKGLLKKEKPGDITIPLPTVDPVTGKPRTTTITILPESSAG [r5_243_JUSTAS]”, the “folding stability dG unfold” value in data set [1] is -0.962 ± 0.14 kcal/mol; in data set [2], less than -1 kcal/mol. With “SAGGMVEIDPNPRVITVTDPSSSKVTKLNLPFPPDEVEKVTVLPDGTIAVYVPATGETIEVPLSELGSAGGS [r16_410_JUSTAS]”, the “folding stability dG unfold” value is -0.136 ± 0.22 kcal/mol in data set [1] and -0.774 ± 0.33 kcal/mol in data set [2]. For “SAGGMVTVERGPENRVITITLPPSVPEKVDELAAKLGTDYVTTEPLPEGDLVRYTIYVPGDNPALLESAGGS [r16_479_JUSTAS]”, the results for the “folding stability dG unfold” value in data set [1] and in data set [2] were 0.0152 ± 0.12 kcal/mol and -0.948 ± 0.41 kcal/mol, respectively.

For “SAGGMVVRTPDGSTVEITVTDPASGSPYRSTDPGGGVEAAIAAINASPAYPNATVSITRYDAGTASPASAGG [r13_914_JUSTAS]”, the “folding stability dG unfold” value in data set [1] was -0.286 ± 0.1 kcal/mol; in data set [2], -0.485 ± 0.16 kcal/mol. Regarding “SAGGNWRPVERPIPIEPGMPPEEFIDEIADELPPGWRIDKPEPHPDNNYFKITVYDPNDGNQVEILFSAGGS [r16_250_TrROS]”, the “folding stability dG unfold” value worked out at 0.363 ± 0.15 kcal/mol in data set [1] and 0.122 ± 0.25 kcal/mol in data set [2]. As to “SAGGPKLYIMIPPELRDNFPDIEIRPVEIPDDNIEIEIKFPGKKVTFPIYIFDPDGKIVEPQTITIEPSAGG [r13_129_TrROS]”, the “folding stability dG unfold” value in data set [1] was determined as 0.501 ± 0.076 kcal/mol; in data set [2] it was 0.226 ± 0.27 kcal/mol.

“SAGGSWIPVEEIAENFPNVEVNTHPNGNIMVRFTHKRKKPNGGKKKHNMTVQLDPEDGRLQSIHPYSAGGSA [r2_104_TrROS]”: the “folding stability dG unfold” value in data set [1] was -0.0297 ± 0.48 kcal/mol. On to “SAKVHIPFPPGMPPKQMRNMVKNALREQQNNGKEPDKITIHMPPDQRPIKDWLKEAGLPPDNVKWEPWPSAG [r14_589_TrROS]”, for which the “folding stability dG unfold” value in data set [3] is -0.422 ± 0.55 kcal/mol; in data set [2], less than -1 kcal/mol. “SALEPGEWRKVTAEIPLPGGPLKLEIYEWPSNGHYYADIRNPGNGRPVEIPFPFDTPDDAVDEAKDFIRSAG [r14_65_TrROS]”: the entries for the “folding stability dG unfold” value in data set [3] and in data set [2] were 0.101 ± 0.4 kcal/mol and -0.625 ± 0.63 kcal/mol, respectively. As for “SAMIVTEKEDPATNTTLVTTTEIYPDSITVTTTTITKSGEILTESPSTTTIPLGSPLGPENKAKNIALSSAG [r14_930_JUSTAS]”, the “folding stability dG unfold” value was -0.184 ± 0.14 kcal/mol in data set [3] and less than -1 kcal/mol in data set [2]. In the case of “SAMKKLRELLEKEFPDRPIKSVKNLGEKLAPDGTPYYVVELTFPDGSTITVTITSEEKPEILEAIEEEESAG [r14_143_JUSTAS]”, the “folding stability dG unfold” value in data set [3] stood at 3.9 ± 0.22 kcal/mol; in data set [2], 4.03 ± 0.27 kcal/mol. For the sequence “SAMKTYTFEFTLTVPPDTPLEEVKAKVKEKVKAELKKLGIPLPETAKIEIKKVKEEGNKIYFKVTVTNKSAG [r14_735_JUSTAS]”, the results for the “folding stability dG unfold” value in data set [3] and in data set [2] were 4.06 ± 0.057 kcal/mol and 4.16 ± 0.14 kcal/mol, respectively. Turning to “SAMTPDELADELAKKFHQQNQENGYEIPDVDIKYDPEEDRVTVEFEMRNKNTGRPMRPTFQIDDPEDILSAG [r14_409_TrROS]”, the “folding stability dG unfold” value is -0.247 ± 0.33 kcal/mol in data set [3] and less than -1 kcal/mol in data set [2]. For the sequence “SAPAVETRSVTTEPVASPTPRVPYTLVVESVTTTAVDAAGTPVATSVSLKEVRYGDGTISRTFSATPTASAG [r14_848_JUSTAS]”, the “folding stability dG unfold” value in data set [3] is -0.953 ± 0.29 kcal/mol; in data set [2], less than -1 kcal/mol. As to “SAPEIVVERFEDGSRRLGFTIPGYEVLEEVDVPANETEKTAVFTLPDRVLVFTFREEGIEPRPVPLDELSAG [r14_403_TrMRF]”, the “folding stability dG unfold” value in data set [3] was -0.201 ± 0.3 kcal/mol; in data set [2], -0.598 ± 0.25 kcal/mol. In the case of “SAPPATLTVDSVEFHPETGTLTIPFSHPAGPTASVLFRNEDGEVLEIPGTVPTATIRAEPNMRLERVFLGSA [r9_113_TrMRF]”, the “folding stability dG unfold” value was 0.499 ± 0.1 kcal/mol in data set [3] and -0.0386 ± 0.081 kcal/mol in data set [2].

Turning to “SASLTPVGPGPDSVVTADPSTGKLYRLEPADGRLTVTTTTFAPGPAAPAPTTTTLPLSPEEAAALRALLSAG [r14_245_JUSTAS]”, the “folding stability dG unfold” value in data set [3] was -0.304 ± 0.26 kcal/mol; in data set [2], less than -1 kcal/mol. For the sequence “SGGMTPEQMIRHVLREARANNPGKKIEISWNSIQKNFPHPMSPEEIKKELKEEDGIKDVTIQPIPPNDPFSA [r9_738_TrROS]”, the “folding stability dG unfold” value is -0.315 ± 0.29 kcal/mol in data set [3] and less than -1 kcal/mol in data set [2]. For the sequence “SGMPPVSVSSIEPVSVSPDGTSRTFRAPLTTPSGEPVTYTGPVSEILKRVEEEGWGPTASAPGGLVEVRDSA [r9_1078_JUSTAS]”, the “folding stability dG unfold” value is -0.368 ± 0.12 kcal/mol in data set [3] and -0.583 ± 0.1 kcal/mol in data set [2]. “SGMTPVSVSRKFTSTFPNGTPVSDPGGLVVLVPEPPPPPYVHLSPEEVEAARAAAAAAGSPLTEADIRASSA [r9_487_JUSTAS]”: the “folding stability dG unfold” value in data set [3] is 0.164 ± 0.21 kcal/mol; in data set [2], -0.642 ± 0.42 kcal/mol. On the same counts, the results for “SGRIKDVIMERDDNGGGNIMIMKLGNGEMEHIPPGEKLEIPLPPDDTLYLMVFDPNDGEPIETEEIKVDDSA [r9_209_TrROS]” are -0.367 ± 0.35 kcal/mol and less than -1 kcal/mol. For the sequence “SKPGDKLEEVTIKIYNPGNGRPREITIEKHEDGWRAQVMNPPGQTKEIPPNDTLEDLLNLPPNYYIEIIPSA [r9_781_TrROS]”, the “folding stability dG unfold” value in data set [1] was -0.271 ± 0.2 kcal/mol. For the sequence “SMDVVTEVTVKLPYRDASHHHHLNIKVTRTISSKDPSLSPEALPPEVLAEEAKKEAIEELKKKGIPEEFLSA [r9_516_JUSTAS]”, the “folding stability dG unfold” value is -0.346 ± 0.64 kcal/mol in data set [3] and less than -1 kcal/mol in data set [2]. With “SMEFTIEVYDPVTPKVETFPVKAPKEKVIEKIREFQEKGGKVVLSGLPEEKVKEIVEEAGVDVEIVPVEKSA [r9_1207_TrMRF]”, the “folding stability dG unfold” value in data set [3] came out at 0.54 ± 0.09 kcal/mol; in data set [2], 0.283 ± 0.19 kcal/mol. The like results for “SMKTYTFTDPNNGIKYTITIDPNKPLVNVTVTKPGGEPVETQTVSVAPGKINLSLNVDGKPISISISLPESA [r9_385_JUSTAS]” were, in that order, 5.29 ± 0.15 kcal/mol and 5.37 ± 0.2 kcal/mol. “SMSIKRARLRPEEIEAEIAALEAQGLRVKREPLEVTPVEVPLKLPDGTPRRVEVVEVVFRLELTPLDQPPSA [r9_991_JUSTAS]”: the “folding stability dG unfold” value was -0.433 ± 0.48 kcal/mol in data set [3] and less than -1 kcal/mol in data set [2]. For the sequence “SMTPEVSVITLRPVEVKKVGEVPVVTLEVTEVENAPEELLEKVKAGAKLTIEVPKDEPIEPDEEIEVVLPSA [r9_557_JUSTAS]”, the “folding stability dG unfold” value in data set [3] is 0.146 ± 0.1 kcal/mol; in data set [2], -0.706 ± 0.27 kcal/mol. For the sequence “SMVYVPEKNVIIEESEKLFYDPNKPRDLRVKTTPVIEVSPSGEKKTLKTEITFYNPEGNPIFTEESEIEISA [r9_383_JUSTAS]”, the “folding stability dG unfold” value was -0.399 ± 0.22 kcal/mol in data set [3] and less than -1 kcal/mol in data set [2].

On to “SSAEEIARRLAEELNLDRVEVRVERLRLEPAEAPEEVRVVRPAPPPPPVTEEERRRRPEERRRRLSEEELSA [r9_724_TrROS_Hall]”, for which the “folding stability dG unfold” value is -0.262 ± 0.32 kcal/mol in data set [3] and less than -1 kcal/mol in data set [2]. With “SSPVVVSESTDPNSSTKTITVTLPPNARVTLTLPGEPVETRPQPDATATLTTGPDALDITIEPLPPGVPLSA [r9_221_JUSTAS]”, the “folding stability dG unfold” value in data set [3] was 0.474 ± 0.1 kcal/mol; in data set [2] it was -0.714 ± 0.24 kcal/mol. In the case of “SSTTPYGDKTVVTTTTPVPGAGKELVTTTTYTFTPDPNSASTSTTATTTTTVTPLPEEAPTPEAVALRRASA [r9_363_JUSTAS]”, the “folding stability dG unfold” value in data set [3] was -0.937 ± 0.44 kcal/mol; in data set [2], less than -1 kcal/mol. The like results for “SVIIKGPGPETYYVEKFGNETKITKFSTEGDKFYKKEYYETFDPNNKTVSRKENEVEEIEPEEEKPFSELSA [r9_83_JUSTAS]” were, in that order, 0.546 ± 0.11 kcal/mol and 0.0208 ± 0.11 kcal/mol.

Turning to “VSPLDLEGPGGLPPSELRRVSVLREETDPSVGEKRLSPVGTLFVPKDTSPEEVEAIIAARPDITRVEVRLLS [r1_132_JUSTAS]”, the “folding stability dG unfold” value in data set [3] amounted to 0.502 ± 0.067 kcal/mol; in data set [2], 0.0944 ± 0.082 kcal/mol.
